One assay deals with T1, endogenous p97 (human, UniProt P55072 2-806).
T1 construct: also called VCP
Kind of assay: Flag co-IP, 293 cells, MudPIT MS. The protocol: For immunoprecipitation experiments, the cells were lysed in buffer A (50 mM HEPES/KOH, pH 7.5; 5 mM Mg(OAc)₂; 70 mM KOAc; 0.2% Triton X-100; 10% glycerol; 0.2 mM EDTA; protease inhibitors) and incubated with anti-Flag agarose beads (Sigma) or anti-Myc sepharose beads (Covance).
Mass spectrometrical sample analysis was performed as described previously (Graumann et al., 2004) using a high-pressure liquid chromatography pump (Agilent) in line to a LCQ DecaXP electrospray ion trap mass spectrometer (ThermoFinnigan). In brief, 2-4 mg of protein extract were incubated with anti-Flag or anti-Myc beads and the immunoprecipitated proteins were eluted with saturated urea. The eluates were then proteolitically digested using sequentially endoproteinase Lys-C and trypsin. The resulting peptide mixtures were pressure-loaded onto triphasic microcapillary columns and sample separation was achieved using a chromatography program consisting of six salt steps, each followed by an organic gradient. The eluting peptides were electrosprayed into the mass spectrometer and the column eluate was continuously analyzed. One full-range mass scan ([…]) was followed by three data-dependent tandem mass spectrometry (MS/MS) spectra. Sequence database matching was performed against the IPI human database (Kersey et al., 2004) version 3.15.1 using Sequest (Eng et al., 1994) and the results were filtered with DTASelect (Tabb et al., 2002), using the parameters indicated in Graumann et al. (2004).

In assay [1] the target is T2, Ubiquitin conjugation factor E4 B, UBE4B (Ufd2ortholog) (human, UniProt O95155 1-1302).
T2 sequence (looked up): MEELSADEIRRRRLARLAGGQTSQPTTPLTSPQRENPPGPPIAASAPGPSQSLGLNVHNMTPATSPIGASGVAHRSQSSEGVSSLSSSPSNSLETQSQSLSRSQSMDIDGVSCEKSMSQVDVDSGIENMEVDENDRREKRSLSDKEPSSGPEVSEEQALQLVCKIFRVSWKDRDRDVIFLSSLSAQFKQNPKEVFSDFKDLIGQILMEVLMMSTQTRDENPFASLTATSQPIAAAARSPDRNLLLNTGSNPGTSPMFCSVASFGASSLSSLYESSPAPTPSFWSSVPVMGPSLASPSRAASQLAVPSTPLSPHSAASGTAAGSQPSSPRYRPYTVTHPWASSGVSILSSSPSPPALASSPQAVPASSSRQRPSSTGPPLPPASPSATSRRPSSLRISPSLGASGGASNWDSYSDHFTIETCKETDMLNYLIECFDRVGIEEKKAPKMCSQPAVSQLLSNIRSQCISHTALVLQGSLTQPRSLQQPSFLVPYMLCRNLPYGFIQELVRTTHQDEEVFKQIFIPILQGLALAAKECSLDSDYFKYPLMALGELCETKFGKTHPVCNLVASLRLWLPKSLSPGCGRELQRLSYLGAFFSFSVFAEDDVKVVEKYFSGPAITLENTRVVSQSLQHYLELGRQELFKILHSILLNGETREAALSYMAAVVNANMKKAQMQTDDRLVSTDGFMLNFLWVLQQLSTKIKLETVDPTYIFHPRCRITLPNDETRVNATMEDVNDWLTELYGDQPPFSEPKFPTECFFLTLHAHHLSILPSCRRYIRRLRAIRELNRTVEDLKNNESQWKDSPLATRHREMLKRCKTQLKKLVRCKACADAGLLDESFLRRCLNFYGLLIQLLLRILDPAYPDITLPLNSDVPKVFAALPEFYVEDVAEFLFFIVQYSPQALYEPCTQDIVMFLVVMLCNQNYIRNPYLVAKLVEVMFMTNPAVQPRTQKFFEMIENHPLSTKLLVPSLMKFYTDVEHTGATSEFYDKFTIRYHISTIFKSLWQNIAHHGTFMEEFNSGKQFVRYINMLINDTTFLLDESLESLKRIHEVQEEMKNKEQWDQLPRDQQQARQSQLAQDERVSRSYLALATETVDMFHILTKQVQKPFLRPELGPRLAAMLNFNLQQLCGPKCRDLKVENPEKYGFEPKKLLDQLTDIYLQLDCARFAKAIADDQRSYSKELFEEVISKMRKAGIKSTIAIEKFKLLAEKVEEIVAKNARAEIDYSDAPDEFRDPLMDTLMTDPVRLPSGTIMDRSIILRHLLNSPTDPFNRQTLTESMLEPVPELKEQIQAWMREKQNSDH
The experiment in a line: co-IP, MudPIT MS.

B1: Flag-SAKS1 (other, UniProt Q04323 1-297, looked up)
chain: MAELTALESLIEMGFPRGRAEKALALTGNQGIEAAMDWLMEHEDDPDVDEPLETPLGHILGREPTSSEQGGLEGSGSAAGEGKPALSEEERQEQTKRMLELVAQKQREREEREEREALERERQRRRQGQELSAARQRLQEDEMRRAAEERRREKAEELAARQRVREKIERDKAERAKKYGGSVGSQPPPVAPEPGPVPSSPSQEPPTKREYDQCRIQVRLPDGTSLTQTFRAREQLAAVRLYVELHRGEELGGGQDPVQLLSGFPRRAFSEADMERPLQELGLVPSAVLIVAKKCPS
notes: also called RDB 2150; not shown: N-terminal Flag tag
In the assay with endogenous p97, B1 gave a sequence count of 68, a sequence coverage of 57.4% and a spectrum count of 663.

B2: Flag-UBXD1 (other, UniProt Q9BZV1 1-441, looked up)
chain: MKKFFQEFKADIKFKSAGPGQKLKESVGEKAHKEKPNQPAPRPPRQGPTNEAQMAAAAALARLEQKQSRAWGPTSQDTIRNQVRKELQAEATVSGSPEAPGTNVVSEPREEGSAHLAVPGVYFTCPLTGATLRKDQRDACIKEAILLHFSTDPVAASIMKIYTFNKDQDRVKLGVDTIAKYLDNIHLHPEEEKYRKIKLQNKVFQERINCLEGTHEFFEAIGFQKVLLPAQDQEDPEEFYVLSETTLAQPQSLERHKEQLLAAEPVRAKLDRQRRVFQPSPLASQFELPGDFFNLTAEEIKREQRLRSEAVERLSVLRTKAMREKEEQRGLRKYNYTLLRVRLPDGCLLQGTFYARERLGAVYGFVREALQSDWLPFELLASGGQKLSEDENLALNECGLVPSALLTFSWDMAVLEDIKAAGAEPDSILKPELLSAIEKLL
notes: also called RDB 2152; not shown: N-terminal Flag tag
In the assay with endogenous p97, B2 registered a sequence count of 159, a sequence coverage of 84.3% and a spectrum count of 1130.

B3: Flag-UBXD8 (other, UniProt Q96CS3 1-445, looked up)
chain: MAAPEERDLTQEQTEKLLQFQDLTGIESMDQCRHTLEQHNWNIEAAVQDRLNEQEGVPSVFNPPPSRPLQVNTADHRIYSYVVSRPQPRGLLGWGYYLIMLPFRFTYYTILDIFRFALRFIRPDPRSRVTDPVGDIVSFMHSFEEKYGRAHPVFYQGTYSQALNDAKRELRFLLVYLHGDDHQDSDEFCRNTLCAPEVISLINTRMLFWACSTNKPEGYRVSQALRENTYPFLAMIMLKDRRMTVVGRLEGLIQPDDLINQLTFIMDANQTYLVSERLEREERNQTQVLRQQQDEAYLASLRADQEKERKKREERERKRRKEEEVQQQKLAEERRRQNLQEEKERKLECLPPEPSPDDPESVKIIFKLPNDSRVERRFHFSQSLTVIHDFLFSLKESPEKFQIEANFPRRVLPCIPSEEWPNPPTLQEAGLSHTEVLFVQDLTDE
notes: also called RDB 2143; not shown: N-terminal Flag tag
For the molecule B3, the binding result in assay [1] is given as “no binding”. In the assay with endogenous p97, this molecule gave a sequence count of 48, a sequence coverage of 57.6% and a spectrum count of 3090.

B4: Flag-FAF1 (other, UniProt Q9UNN5 1-650, looked up)
chain: MASNMDREMILADFQACTGIENIDEAITLLEQNNWDLVAAINGVIPQENGILQSEYGGETIPGPAFNPASHPASAPTSSSSSAFRPVMPSRQIVERQPRMLDFRVEYRDRNVDVVLEDTCTVGEIKQILENELQIPVSKMLLKGWKTGDVEDSTVLKSLHLPKNNSLYVLTPDLPPPSSSSHAGALQESLNQNFMLIITHREVQREYNLNFSGSSTIQEVKRNVYDLTSIPVRHQLWEGWPTSATDDSMCLAESGLSYPCHRLTVGRRSSPAQTREQSEEQITDVHMVSDSDGDDFEDATEFGVDDGEVFGMASSALRKSPMMPENAENEGDALLQFTAEFSSRYGDCHPVFFIGSLEAAFQEAFYVKARDRKLLAIYLHHDESVLTNVFCSQMLCAESIVSYLSQNFITWAWDLTKDSNRARFLTMCNRHFGSVVAQTIRTQKTDQFPLFLIIMGKRSSNEVLNVIQGNTTVDELMMRLMAAMEIFTAQQQEDIKDEDEREARENVKREQDEAYRLSLEADRAKREAHEREMAEQFRLEQIRKEQEEEREAIRLSLEQALPPEPKEENAEPVSKLRIRTPSGEFLERRFLASNKLQIVFDFVASKGFPWDEYKLLSTFPRRDVTQLDPNKSLLEVKLFPQETLFLEAKE
notes: also called RDB 2151; not shown: N-terminal Flag tag
Consider B4, for which, in assay [1], the binding result is listed as “no binding”. Besides, in the assay with endogenous p97, the sequence count is 84, the sequence coverage stood at 68.9% and the spectrum count was 539.

B5: Flag-UBXD6 (other, UniProt O00124 1-270, looked up)
chain: MASRGVVGIFFLSAVPLVCLELRRGIPDIGIKDFLLLCGRILLLLALLTLIISVTTSWLNSFKSPQVYLKEEEEKNEKRQKLVRKKQQEAQGEKASRYIENVLKPHQEMKLRKLEERFYQMTGEAWKLSSGHKLGGDEGTSQTSFETSNREAAKSQNLPKPLTEFPSPAEQPTCKEIPDLPEEPSQTAEEVVTVALRCPSGNVLRRRFLKSYSSQVLFDWMTRIGYHISLYSLSTSFPRRPLAVEGGQSLEDIGITVDTVLILEEKEQTN
notes: also called Rep-8/UBXD6; RDB 2145; not shown: N-terminal Flag tag
In the assay with endogenous p97, B5 gave a sequence count of 55, a sequence coverage of 59.5% and a spectrum count of 212.

B6: Flag-UBXD3 (other, UniProt Q96LJ8 1-280, looked up)
chain: MATEAPVNIAPPECSTVVSTAVDSLIWQPNSLNMHMIRPKSAKGRTRPSLQKSQGVEVCAHHIPSPPPAIPYELPSSQKPGACAPKSPNQGASDEIPELQQQVPTGASSSLNKYPVLPSINRKNLEEEAVETVAKKASSLQLSSIRALYQDETGTMKTSEEDSRARACAVERKFIVRTKKQGSSRAGNLEEPSDQEPRLLLAVRSPTGQRFVRHFRPTDDLQTIVAVAEQKNKTSYRHCSIETMEVPRRRFSDLTKSLQECRIPHKSVLGISLEDGEGWP
notes: also called RDB 2149; not shown: N-terminal Flag tag
In the assay with endogenous p97, B6 showed a sequence count of 57, a sequence coverage of 64.5% and a spectrum count of 254.

B7: Flag-UBXD2 (other, UniProt Q92575 1-508, looked up)
chain: MLWFQGAIPAAIATAKRSGAVFVVFVAGDDEQSTQMAASWEDDKVTEASSNSFVAIKIDTKSEACLQFSQIYPVVCVPSSFFIGDSGIPLEVIAGSVSADELVTRIHKVRQMHLLKSETSVANGSQSESSVSTPSASFEPNNTCENSQSRNAELCEIPPTSDTKSDTATGGESAGHATSSQEPSGCSDQRPAEDLNIRVERLTKKLEERREEKRKEEEQREIKKEIERRKTGKEMLDYKRKQEEELTKRMLEERNREKAEDRAARERIKQQIALDRAERAARFAKTKEEVEAAKAAALLAKQAEMEVKRESYARERSTVARIQFRLPDGSSFTNQFPSDAPLEEARQFAAQTVGNTYGNFSLATMFPRREFTKEDYKKKLLDLELAPSASVVLLPAGRPTASIVHSSSGDIWTLLGTVLYPFLAIWRLISNFLFSNPPPTQTSVRVTSSEPPNPASSSKSEKREPVRKRVLEKRGDDFKKEGKIYRLRTQDDGEDENNTWNGNSTQQM
notes: also called RDB 2153; not shown: N-terminal Flag tag
In the case of B7, in the assay with endogenous p97, the sequence count worked out at 27, the sequence coverage was 41.1% and the spectrum count is 958.

B8: Flag-ASPL (other, UniProt Q9BZE9 1-553, looked up)
chain: MAAPAGGGGSAVSVLAPNGRRHTVKVTPSTVLLQVLEDTCRRQDFNPCEYDLKFQRSVLDLSLQWRFANLPNNAKLEMVPASRSREGPENMVRIALQLDDGSRLQDSFCSGQTLWELLSHFPQIRECLQHPGGATPVCVYTRDEVTGEAALRGTTLQSLGLTGGSATIRFVMKCYDPVGKTPGSLGSSASAGQAAASAPLPLESGELSRGDLSRPEDADTSGPCCEHTQEKQSTRAPAAAPFVPFSGGGQRLGGPPGPTRPLTSSSAKLPKSLSSPGGPSKPKKSKSGQDPQQEQEQERERDPQQEQERERPVDREPVDREPVVCHPDLEERLQAWPAELPDEFFELTVDDVRRRLAQLKSERKRLEEAPLVTKAFREAQIKEKLERYPKVALRVLFPDRYVLQGFFRPSETVGDLRDFVRSHLGNPELSFYLFITPPKTVLDDHTQTLFQANLFPAALVHLGAEEPAGVYLEPGLLEHAISPSAADVLVARYMSRAAGSPSPLPAPDPAPKSEPAAEEGALVPPEPIPGTAQPVKRSLGKVPKWLKLPASKR
notes: also called RDB 2144; not shown: N-terminal Flag tag
In the assay with endogenous p97, B8 gave a sequence count of 154, a sequence coverage of 78.5% and a spectrum count of 1440.

The values above are taken from patent publication US20090192084A1 (CALIFORNIA INSTITUTE OF TECHNOLOGY, published 2009).
